Test results as given in patent US20130177528A1, “COMPOSITIONS AND METHODS FOR INHIBITING VIRAL INFECTION” (WESTERN UNIVERSITY OF HEALTH SCIENCES, priority 2011, published 2013).

What was measured:
[1] = test system: HSV-2 (333 gJ-reporter virus); test: HSV-2 infection of HeLa cells, ONPG assay (Example 4); format: cell-based; settings: virus pre-incubated; starting concentration 1 mg/ml
Experimental: In this experiment different clinical strains of HSV-1 (F, G, and MP strains of HSV-1 [37] at 25 pfu/cell) were either pre-incubated with 1×PBS (control) or with CN at the concentrations indicated in FIG. 8, panel A for 90 min at room temperature. After 90 min of incubation the two pools of viruses were incubated with Nectin-1 receptor expressing CHO Igβ cells that express β-galactosidase upon viral entry as described. The viral infection blocking was measured by ONPG assay (FIG. 8, panel A). Similar experiment was conducted using Lac Z encoded HSV-2 (333 gJ-reporter virus). HSV-2 is a genital herpes virus. […] Each value shown is the mean of three or more determinations (±SD).

HSV-1 (KOS) gL86 = test: HSV-1 infection of HeLa, Vero and 293T cells, virus pre-incubated (Example 3); format: cell-based, herpes simplex virus type-1; settings: virus 30 pfu/cell pre-incubated 90 min, 6 hr
Experimental: CN blocks herpes simplex virus type-1 (HSV-1) infection of natural target cells. HeLa, Vero and 293T cells were each grown to 100% confluency in 96-well plates. The β-galactosidase-expressing recombinant virus HSV-1 (KOS) HSV-1 gL86 (30 pfu/cell) was pre-incubated with CN at the concentration indicated in FIG. 7 or mock treated with 1 X phosphate saline buffer for 90 min at room temperature. After 6 hr, the cells were washed, permeabilized and incubated with ONPG substrate (3.0 mg/ml). The β-gal enzymatic activity was measured at an optical density of 410 nm (OD 410). Each value shown in FIG. 7 is the mean of three or more determinations (±SD). Mock treated HSV-1 with PBS was used as a control. HSV-1 infection of HeLa (panel A) and Vero and 293T cells (panel B) was blocked by CN.

HSV-1 (804) strain = test: HSV-1 plaque assay in HeLa cells (Example 11); format: cell-based, herpes simplex virus type-1; settings: 10 μM, 0.01 PFU/cell, 24 h post-infection
Experimental: (§1) (A) In this experiment nectin-1 Chinese hamster ovary (CHO) Ig8 cells that express β-galactosidase upon viral entry were pre-treated with 10 μM contortrostatin (CN; indicated as treated [Tr]) or mock treated (indicated as untreated [Un]) with phosphate saline buffer for 90 min at room temperature followed by infection using clinical isolates of herpes simplex virus type-1 (HSV-1; F,G, and MP at 25 pfu/cell) for 6 h. The viral entry blocking was measured by o-nitro-phenyl-β-o-galactopyranoside (ONPG) assay as previously described. Error bars represent SD. (B) Confluent monolayers of HeLa cells were infected with HSV-1 (804) strain at 0.01 PFU/cell in presence (panel i) and absence (panel ii) of CN for 2 h at 37° C. Viral replication in HeLa cells were visualized 24 h post-infection for plaques. a=significant differences from corresponding mock-treated controls (P<0.05, t-test).
Viral plaque assay. Confluent layers of RPE cells in glass bottom dishes were infected with CMV Ad169 strain in the presence and absence of CN at 0.01 PFU per cell for 2 hrs. This was followed by extensive but gentle washing three times with DMEM media followed by feeding cells with DMEM media. The cells were then incubated at 37° C. for thee days. […] The number of plaques formed were then visualized and quantified as indicated. […] The cells were again washed 5× in PBS and the numbers of plaques were counted. […]

[2] = test system: β-galactosidase-expressing recombinant Adenovirus; test: Adenovirus infection of HeLa cells (Example 7); format: cell-based; settings: pre-incubated 90 min
Experimental: HeLa cells were infected with a β-galactosidase-expressing recombinant Adenovirus were pre-incubated with CN at (1) the dilution indicated in FIG. 11, panel A (stock concentration 22 nM) or (2) the concentrations indicated in FIG. 11, panel B, or mock treated with 1 X phosphate saline buffer for 90 min at room temperature. After 12 hr, the cells were washed, permeabilized and incubated with ONPG substrate (3.0 mg/ml) for quantitation of β-galactosidase activity expressed from the input viral genome. Positive (Pos) infected with virus alone; Negative (Neg) uninfected control. The enzymatic activity was measured at an optical density of 410 nm (OD 410).

[3] = test system: HSV-1 strains F, G and MP; test: Entry of clinical HSV-1 strains into nectin-1 CHO Ig8 cells, cells pre-incubated with CN (Example 10); format: cell-based, herpes simplex virus type-1; settings: nectin-1 CHO Ig8 cells pre-incubated with 10 μM, MP at 25 pfu/cell, 6 h
Experimental: as §1
The next question was to evaluate the broader significance of CN as an anti-HSV agent. Therefore the ability of CN to block viral entry in different clinical virulent strains of HSV-1 (F, G and MP) was tested. Here, nectin-1 expressing CHO Ig8 cells that express β-galactosidase upon viral entry were used. The cells were preincubated with CN at 10 μM and then infected with clinical isolates of HSV-1.

B1: contortrostatin (protein)
chain: DAPANPCCDAATCKLTTGSQCADGLCCDQCKFMKEGTVCRRARGDDLDDYCNGISAGCPRNPFHA
- HSV-2 infection of HeLa cells (dose response, ONPG assay) [1]: blocks infection
- HSV-1 infection (β-gal activity, OD 410) (HSV-1 (KOS) gL86; 293T cells): blocked
- HSV-1 infection (β-gal activity, OD 410) (HSV-1 (KOS) gL86; HeLa cells): blocked
- HSV-1 infection (β-gal activity, OD 410) (HSV-1 (KOS) gL86; Vero cells): blocked
- HSV-1 plaque formation (HSV-1 (804) strain): blocked the plaque formation
- Adenovirus infection of HeLa cells (β-galactosidase activity, OD 410) ([2]; 12 hr): blocks infection
- IC50 ([2]; β-galactosidase read after 12 hr): 2.75 nM
- entry of clinical HSV-1 strains (ONPG assay) [3]: blocked the entry of different strains of HSV-1
